Source: US20090041783A1 (MOCHIDA PHARMACEUTICAL, published 2009)

B1: F1245-6-2 (antibody, V domains shown)
VH: QVQLQQPGAELVKPGASVKLSCKASGYTFTSYWMHWVKQRPGQGLEWIGMIHPNSGSTNYNEKFKSKATLTVDKSSSTAYMQLSSLTSEDSAVYYCARGGVTPVAYWGQGTLVTVSA
VL: SIVMTQTPKFLLVSAGDRVTITCKASQSVSNDVAWYQQKPGQSPKLLIYYASNRYTGVPYRFTGSGYGTDFTFTISTVQAEDLAVYFCQQDYSSPWTFGGGTKLEIKR
B2: F1232-7-1 (antibody, V domains shown)
VH: VQLQQSGPELVRPGESVKISCKGSGYTFTDYAIHWVKLSHAKSLEWIGVISIYYDDTNYNQKFKGKATMTVDKSSSTAYMELARLTSEDSAIYYCARRRDSSGPYAMDYWGQGTSVTVSS
VL: DIVLTQSPASLAVSLGQRATISCRASESVDSYGNSFMHWYQQKPGQPPKLLIYRASNLESGIPARFSGSGSRTDFTLTINPVEADDVATYYCQQSNEDPYTFGGGTKLEIKR
notes: Mouse hybridoma monoclonal antibody; also called F1232-7-1 antibody
B3: PEGylated F1232-37-2 antibody (antibody, V domains shown)
VH: VQLQQSGPELVRPGESVKISCKGSGYTFTDYAIHWVKLSHAKSLEWIGVISIYYDDTNYNQKFKGKATMTVDKSSSTAYLELARLTSEDSAIYYCARRRDSSGPYAMDYWGQGTSVTVSS
VL: DIVLTQSPASLAVSLGQRATISCRASESVDSYGNSFMHWYQQKPGQPPKLLIYRASNLESGIPARFSGSGSRTDFTLTINPVEADDVATYYCQQSNEDPYTFGGGTKLEIKR
modifications: linear PEG of 20 KD coupled through a succinimide group; sites not stated
notes: Whole mouse F1232-37-2 reacted with PEG at antibody:PEG 1:10 (molar) and purified on Q Sepharose HP; also called F1232-37-2 PEGylated antibody
B4: PEG-F1232-372Fab (Fab, V domains shown)
VH: VQLQQSGPELVRPGESVKISCKGSGYTFTDYAIHWVKLSHAKSLEWIGVISIYYDDTNYNQKFKGKATMTVDKSSSTAYLELARLTSEDSAIYYCARRRDSSGPYAMDYWGQGTSVTVSS
VL: DIVLTQSPASLAVSLGQRATISCRASESVDSYGNSFMHWYQQKPGQPPKLLIYRASNLESGIPARFSGSGSRTDFTLTINPVEADDVATYYCQQSNEDPYTFGGGTKLEIK
modifications: linear 20 KD PEG with succinimide group; sites not given ; Linear 20 KD PEG with succinimide group coupled to the Fab; sites and number not given.
notes: also called PEGylated F1232-37-2 Fab antibody; PEGylated F1232-37-2Fab fragment; copies: 1 + 1
B5: F1232-24-1 (antibody, V domains shown)
VH: VQLQQSGAELVRPGVSVKISCKGSGYTFTDYAMHWVKQSHAKSLEWIGVISTYYGDASYNQKFKGKATMTVDKSSSTAYMELARLTSEDSAIYYCARSYDYDPWFAYWGQGTLVTVSA
VL: DIVLTQSPASLAVSLGQRATISCRASESVDNYGISFMHWYQQKPGQPPKLLIYRASNLESGIPARFSGSGSRTDFTLTINPVETDDVATYYCQQSNKDPLTFGAGTKLELKR
notes: Mouse hybridoma monoclonal antibody
B6: F1201-18 (antibody, V domains shown)
VH: VQLVESGGGLVKPGGSLKLSCAASGFTFSSYAMSWVRQTPEKRLEWVAIISSGGSYTYYPDSVKGRFTISRDNAKNTLYLHMSSLRSEDTAMYYCARQGGGYFDYWGQGTTLTVSS
VL: DIVLTQSPASLAVSLGQRATISCRASESVDSYGNSFMHWYQQKPGQPPKLLIYRASNVESGIPARFSGSGSRTDFTLTINPVEADDVATYYCQQSNEDPPTFGAGTKLELKR
notes: as for B5
B7: F1232-18-3 (antibody, V domains shown)
VH: VMLVESGGGLVKPGGSLKLSCAASGFTFSSYAMSWVRQTPEKRLEWVATISSGGSYTYYPDSVKGRFTISRDNAKNTLYLQMSSLRSADTAMYYCARDYGYFDYWGQGTTLTVSS
VL: DIVLTQSPASLAVSLGQRATISCRASESVDNYGISFMHWYQQKPGQPPKLLFYRASNLESGIPARFSGSGSRTDFTLTINPVETDDVATYYCQQSNTDPRTFGGGTKLEIKR
notes: as for B5
B8: F1232-17-1 (antibody, V domains shown)
VH: VQLVESGGDLVKPGGSLKLSCAASGFTFSSYGMSWVRQTPDKRLEWVATISSGGSYTYYPDNVKGRFTISRDNAKNTLYLQMSSLNSEDTAMYYCARQVYYFGSCDYWGQGTTLTVSS
VL: DIVLTQSPASLAVSLGQRATISCRASESVDNYGISFMHWYQQKPGQPPKLLIYRASNLESGIPARFSGSGSRTDFTLTINPVETDDVATYYCQQSNKDPWTFGGGTKLEIKR
notes: as for B5

Tests used:
[1] = molecular target: T1, human GPVI extracellular region-human Fc fusion protein (hGPVI-hFc) (human); assay: ELISA of hybridoma culture supernatant on coated hGPVI-hFc (selection criterion)
T1 construct: Expressed in COS-1, purified on Protein A; also called GPVI-HHH-hFc; hGPVIHHH-hFc
Protocol: Next, culture supernatant was added to each well and incubated at 37° C. for one hour. After incubation, the well was washed three times with the saline containing 0.05% Tween20. Peroxidase-labeled anti-mouse immunoglobulin antibody (DAKO, P260) was 1000-fold diluted with D-PBS containing 10% rabbit serum and added to each well at 50 μL. After incubation at 37° C. for one hour, washing in a similar manner was performed and TMB solution (BioFix) was added to each well. After ten minutes at room temperature, the reaction was terminated with 0.5 M sulfuric acid solution. Subsequently, absorbance at 450 nm was measured with the plate spectrophotometer (Multiscan JX, Dainippon Pharmaceutical). As a result, the cell whose culture supernatant reacted to hGPVI-hFc was selected and a cloning with limiting dilution method (“The Introduction to Monoclonal Antibody Experimental Procedure” written by Tamie Andoh and Takeshi Chiba (Kodansha, p 83)) was performed. Eight days later, screening was done in a similar manner and the antibody which reacts to hGPVI-hFc was selected.
After one week, hybridoma, which produces a desired antibody was screened using the binding property to hGPVI-hFc and hGPVI-mL9-hFc prepared in EXAMPLE 7 as an index. That is, the purified hGPVI-hFc or hGPVI-mL9-hFc, which was prepared in EXAMPLE 1, was diluted with D-PBS (pH7.4) to 1 μg/mL. And 50 μL/well of the solution was added to make hGPVI-hFc or hGPVI-mL9-hFc-coated plate using the same method as that of EXAMPLE 2. Next, a culture supernatant was added to each well, and after incubation at room temperature for one hour, by the same method as that of EXAMPLE 2, using peroxidase-labeled anti-mouse immunoglobulin antibody (DAKO, P260) a reaction was performed to measure an absorbance. As a result, the cell producing an antibody that binds to the purified hGPVI-hFc (absorbance: equal to or more than one), but not hGPVI-mL9-hFc (abdorbance: equal to or less than 0.5) was selected and cloned by the method described in EXAMPLE 2. Eight through ten days later, a screening was done as with the similar way to obtain a hybridoma producing an L9-specific mouse anti-human GPVI antibody. As with EXAMPLE 2B (3), the obtained hybridoma was cultured and a monoclonal antibody was purified. The sub-type of each antibody was determined using IsoStrip Mouse Monoclonal antibody Isotyping Kit (Roche).

[2] = molecular target: T1, human GPVI extracellular region-human …; assay: ELISA on immobilised hGPVI-hFc; + A450 0.5-1.0, ++ 1.0-2.0, +++ more than 2.0
Protocol: The hGPVI-hFc prepared by EXAMPLE 1B was diluted with D-PBS to 2 μg/mL and added to immunoplate (Maxisorp NUNC) at 50 μL/well. After incubation at 37° C. for one hour, the well was washed five times with ion-exchanged water, and D-PBS (pH7.4) containing 2% StabilGuard (Surmodics) was added to each well in 100 μL for blocking. Next, culture supernatant was added to each well and incubated at 37° C. for one hour. After incubation, the well was washed three times with the saline containing 0.05% Tween20. Peroxidase-labeled anti-mouse immunoglobulin antibody (DAKO, P260) was 1000-fold diluted with D-PBS containing 10% rabbit serum and added to each well at 50 μL. After incubation at 37° C. for one hour, washing in a similar manner was performed and TMB solution (BioFix) was added to each well. After ten minutes at room temperature, the reaction was terminated with 0.5 M sulfuric acid solution. Subsequently, absorbance at 450 nm was measured with the plate spectrophotometer (Multiscan JX, Dainippon Pharmaceutical). As a result, the cell whose culture supernatant reacted to hGPVI-hFc was selected and a cloning with limiting dilution method (“The Introduction to Monoclonal Antibody Experimental Procedure” written by Tamie Andoh and Takeshi Chiba (Kodansha, p 83)) was performed. Eight days later, screening was done in a similar manner and the antibody which reacts to hGPVI-hFc was selected.
(§1) To analyze a property for each antibody obtained in EXAMPLE 13, binding to human GPVI-hFc, competition with F1232-37-2 described in EXAMPLE 4 and specificity for L9 loop were investigated. That is, as for the binding to human GPVI, according to the method of EXAMPLE 2, a binding activity to immobilized antigen was measured. For the binding activity, the range of absorbance from 0.5 to 1.0 is represented by “+”, from 1.0 to 2.0 by “++”, the range more than 2.0 by “+++”. The competitive test with F1232-37-2 was performed as follows. That is, according to the method by Nakane et al. (J. Histochem. Cytochem., 22, 1084, 1974), peroxidase (TOYOBO)-labeled F1232-37-2 antibody was prepared and an antibody concentration was calculated from the amount of the antibody used.

[3] = molecular target: T1, human GPVI extracellular region-human …; assay: ELISA, collagen on plate, hGPVI-hFc plus antibody; +++ more than 50%, ++ 30-50%, + 10-30% inhibition
[4] = molecular target: T1, human GPVI extracellular region-human …; assay: competition ELISA on hGPVI-hFc plate; competitor: peroxidase-labelled F1232-37-2; +++ more than 50%, ++ 30-50%, + 10-30% inhibition
Protocol: as §1
Next, by using the peroxidase-labeled antibody, the competitive test for a variety of purified antibody was performed. That is, 25 μL of the above labeled antibody and 25 μL of each purified antibody were added to well of hGP-hFc-immobilized plate. After incubation at 37° C. for one hour, the well was washed five times with the saline containing 0.05% Tween20, and the reaction mixture was developed with TMB solution (BioFix). After incubation at room temperature for 10 minutes, the reaction was terminated with 0.5 M sulfuric acid solution and an absorbance at 450 nm was measured with the plate spectrophotometer (Multi-Scan JX, Dainippon Pharmaceutical).

[5] = molecular target: T1, human GPVI extracellular region-human …; assay: SPR (BIACORE3000), GPVI-Fc on CM5 chip, antibody 1.25-40 nM as analyte, bivalent analyte fit
Protocol: (§2) Dissociation constant for the anti-GPVI monoclonal antibody prepared in EXAMPLE 2 was measured using protein interaction analyzer BIACORE3000 (BIACORE). That is, to sensor chip, CM5 chip (BIACORE), GPVI substitution mutant (hGPVIHHH-hFc and FFH-hFc) that is prepared in EXAMPLE 1 was linked according to the manual. Then each antibody was diluted with HBS-EP buffer solution (BIACORE) to prepare a series of diluted solution from 1.25 to 40 nM, and analyzed with BIACORE3000. Every each antibody bound chip, the chip was regenerated with glycine buffer solution at pH1.5. The obtained result was analyzed with Bivalent analyte, the evaluation software (BIACORE) to calculate dissociation constant. It was shown that each anti-GPVI monoclonal antibody has a sufficient affinity to GPVI-HHH-hFc.

[6] = molecular target: T2, cynomolgus monkey D1D2-human D3 chimeric GPVI-human Fc fusion protein (GPVI-FFH-hFc) (cynomolgus monkey (D1, D2) and human …); assay: as above
T2 construct: also called Monkey GPVI
Protocol: as §2

[7] = molecular target: T1, human GPVI extracellular region-human …; assay: ELISA on immobilised hGPVI-hFc, peroxidase-labelled anti-mouse immunoglobulin antibody
Protocol: Binding activity to the antigen was detected by ELISA. To each well of immunoplate immobilized with hGPVI-hFc (prepared by the method described in EXAMPLE 2 and the like), F1232-37-2 antibody and F1232-37-2 PEGylated antibody, wherein both antibodies had been adjusted to the same concentration, was added and the plate was incubated at 37° C. for one hour. The well was washed with saline containing 0.05% Tween20. Then 50 μL of peroxidase-labeled anti-mouse immunoglobulin antibody (DAKO, P260), which had been diluted by 1000-fold with 10% rabbit serum-containing D-PBS, was added to each well. After incubation at 37° C. for one hour, coloring reaction by the TMB substrate was done to measure an absorbance at 450 nm with plate spectro-photometer (Molecular Devices, Wako). As a result, it was confirmed that both F1232-37-2 antibody and PEGylated F1232-37-2 antibody have almost equivalent binding activity.

[8] = molecular target: T1, human GPVI extracellular region-human …; assay: ELISA on immobilised hGPVI-hFc (GPVI antigen binding assay of Example 31)

T1 sequence (chain, as listed by the source limits assumed): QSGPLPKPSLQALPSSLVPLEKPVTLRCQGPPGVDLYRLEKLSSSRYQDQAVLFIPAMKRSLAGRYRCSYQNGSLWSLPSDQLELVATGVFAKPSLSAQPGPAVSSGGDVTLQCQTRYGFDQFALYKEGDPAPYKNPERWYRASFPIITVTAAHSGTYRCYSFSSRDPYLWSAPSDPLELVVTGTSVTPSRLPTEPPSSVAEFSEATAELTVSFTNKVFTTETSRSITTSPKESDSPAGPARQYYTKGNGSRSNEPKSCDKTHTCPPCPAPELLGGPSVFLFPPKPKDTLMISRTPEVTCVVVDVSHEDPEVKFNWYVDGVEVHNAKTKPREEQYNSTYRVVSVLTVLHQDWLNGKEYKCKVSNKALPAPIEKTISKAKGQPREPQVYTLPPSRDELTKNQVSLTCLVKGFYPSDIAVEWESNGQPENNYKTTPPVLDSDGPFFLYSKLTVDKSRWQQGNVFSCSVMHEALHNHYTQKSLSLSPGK
T2 sequence (chain, as listed by the source mutant limits assumed): as the sequence (chain, as listed by the source limits assumed) above, with S2R, S61H, L78P, R166G, V181M, P442S counted along it

Binder | Kd [5] | Kd [6] | also measured
B1 | – | – | absorbance [1]: ≥ 1 absorbance; absorbance [2]: 1 to 2 od; percent inhibition [3]: 10 to 30%; percent inhibition [4]: > 50%
B2 | 34.7 nM | 343 nM | –
B3 | – | – | EC50 (read off the curve) [7]: ~0.02 µg/mL
B4 | – | – | EC50 (read off the curve) [8]: ~0.3 µg/mL
B5 | 0.25 nM | 0.71 nM | –
B6 | 1.16 nM | 0.619 nM | –
B7 | 1.65 nM | 365 nM | –
B8 | 0.522 nM | 0.177 nM | –
